Results taken from paper PMC6218510, “Step Sizes and Rate Constants of Single-headed Cytoplasmic Dynein Measured with Optical Tweezers” (Scientific Reports, 2018).
One block for each substance: values may come before it.

Assays:
[1] = test system: T1, Nc1ncnc2c1ncn2[C@@H]1O[C@H](COP(=O)(O)OP(=O)(O)OP(=O)(O)O)[C@@H](O)[C@H]1O; experiment: purified protein; assay type: biochemical, Homo sapiens; details: basal, no microtubules, 25 °C
T1 construct: motor domain with short tail Gly1288-Glu4646 (384 kDa), N-terminal FLAG tag and BCCP kept; Sf9 baculovirus; monomer

[2] = test system: T1, Nc1ncnc2c1ncn2[C@@H]1O[C@H](COP(=O)(O)OP(=O)(O)OP(=O)(O)O)[C@@H](O)[C@H]1O; experiment: optical tweezers, mean displacement of single-headed dynein against ATP; assay type: biochemical, Homo sapiens; details: with microtubules (paclitaxel), pH 7.2, 25 mM PIPES, 25 mM K-acetate, 2 mM MgCl2, 25 °C, half of power stroke size
[3] = biological target: microtubules (polymerized tubulin); experiment: optical tweezers (single-trap assay) + other: in vitro motility assay; duty ratio calculated from the velocity of a single GST-D384 molecule at no load (387 nm/s) and the microtubule gliding velocity (481 nm/s) at 1 mM ATP
Sequence of microtubules (polymerized tubulin) (chain, as listed by the source, chain 1 of 2): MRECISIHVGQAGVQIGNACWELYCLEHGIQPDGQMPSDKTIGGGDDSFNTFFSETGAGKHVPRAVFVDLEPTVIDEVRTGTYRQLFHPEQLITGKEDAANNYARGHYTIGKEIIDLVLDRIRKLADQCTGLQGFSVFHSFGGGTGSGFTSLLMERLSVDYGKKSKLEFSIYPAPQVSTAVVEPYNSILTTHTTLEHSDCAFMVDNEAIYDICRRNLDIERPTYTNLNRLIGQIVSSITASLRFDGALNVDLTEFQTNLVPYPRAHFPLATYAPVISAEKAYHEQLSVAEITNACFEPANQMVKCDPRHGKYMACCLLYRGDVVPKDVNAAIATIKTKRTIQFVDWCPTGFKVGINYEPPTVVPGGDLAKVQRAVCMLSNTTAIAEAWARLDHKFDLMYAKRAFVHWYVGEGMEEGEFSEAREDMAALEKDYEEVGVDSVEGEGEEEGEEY
Sequence of microtubules (polymerized tubulin) (chain, as listed by the source, chain 2 of 2): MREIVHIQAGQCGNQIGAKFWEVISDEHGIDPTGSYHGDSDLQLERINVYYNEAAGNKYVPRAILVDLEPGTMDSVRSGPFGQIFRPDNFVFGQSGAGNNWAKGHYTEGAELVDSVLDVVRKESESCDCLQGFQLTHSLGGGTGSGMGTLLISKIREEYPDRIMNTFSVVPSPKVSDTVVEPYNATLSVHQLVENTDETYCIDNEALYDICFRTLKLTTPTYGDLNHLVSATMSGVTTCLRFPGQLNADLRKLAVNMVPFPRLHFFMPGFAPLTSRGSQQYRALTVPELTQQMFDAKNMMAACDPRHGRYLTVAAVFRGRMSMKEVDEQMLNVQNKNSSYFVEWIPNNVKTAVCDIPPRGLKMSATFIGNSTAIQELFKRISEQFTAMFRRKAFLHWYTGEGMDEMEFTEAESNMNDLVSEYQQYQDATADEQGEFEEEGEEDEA

[4] = biological target: microtubules (polymerized tubulin); experiment: optical tweezers (single-trap assay); single GST-D384 molecules on a trapped bead, polarity-marked microtubules fixed on glass (amino-silane, glutaraldehyde), trap stiffness 16 fN/nm, 1 mM ATP; duty ratio calculated from the decay of peak force/displacement (run length), (1-rd)^2 = 0.26
[5] = biological target: microtubules (polymerized tubulin)

Substance: D384 (single-headed human cytoplasmic dynein-1 motor domain) (Homo sapiens)
Km [1]: 31 ± 4 µM
K0.5 [2]: 17.6 ± 0.5 µM

duty ratio rd (fraction of time that each head spends attached to a microtubule) [3]: 0.59
duty ratio rd (fraction of time that each head spends attached to a microtubule) [4]: 0.49
Substance: artificially dimerized dynein construct GST-D384, Q14204 1288-4646

Km^MT: Michaelis-Menten constant for microtubules of the microtubule-stimulated ATPase of D384 (EnzChek phosphate assay, 35 nM dynein, 0-25 μM microtubules, 1 mM ATP, 25 °C) [5]: 50 µM
Substance: human cytoplasmic dynein monomer construct D384, Q14204 1288-4646
